One molecule from article PMC4536637, “Unique Toll-Like Receptor 4 Activation by NAMPT/PBEF Induces NFκB Signaling and Inflammatory Lung Injury” (Scientific Reports, 2015) can be followed below.

This assay addresses T1, recombinant human TLR4 (Toll-like receptor 4) (human, UniProt O00206 24-631).
T1 construct: Toll-like receptor 4, human, recombinant; No catalogue number is printed; also called rTLR4; source: bought: R&D Systems
The experiment in a line: SPR; Bio-Rad ProteOn XPR36, GLC chip; Bethyl PBEF antibody covalently immobilised (5000 RU); rPBEF only (100 nM), rTLR4 only (1 uM) and pre-mixed rPBEF-rTLR4 injected over the antibody surface; PBST (10 mM phosphate, 150 mM NaCl, 0.05% Tween20, pH 7.4). Conditions: both partners purified. In general terms: SPR reads the build-up and loss of mass on a sensor chip optically.

T1 sequence (O00206 24-631): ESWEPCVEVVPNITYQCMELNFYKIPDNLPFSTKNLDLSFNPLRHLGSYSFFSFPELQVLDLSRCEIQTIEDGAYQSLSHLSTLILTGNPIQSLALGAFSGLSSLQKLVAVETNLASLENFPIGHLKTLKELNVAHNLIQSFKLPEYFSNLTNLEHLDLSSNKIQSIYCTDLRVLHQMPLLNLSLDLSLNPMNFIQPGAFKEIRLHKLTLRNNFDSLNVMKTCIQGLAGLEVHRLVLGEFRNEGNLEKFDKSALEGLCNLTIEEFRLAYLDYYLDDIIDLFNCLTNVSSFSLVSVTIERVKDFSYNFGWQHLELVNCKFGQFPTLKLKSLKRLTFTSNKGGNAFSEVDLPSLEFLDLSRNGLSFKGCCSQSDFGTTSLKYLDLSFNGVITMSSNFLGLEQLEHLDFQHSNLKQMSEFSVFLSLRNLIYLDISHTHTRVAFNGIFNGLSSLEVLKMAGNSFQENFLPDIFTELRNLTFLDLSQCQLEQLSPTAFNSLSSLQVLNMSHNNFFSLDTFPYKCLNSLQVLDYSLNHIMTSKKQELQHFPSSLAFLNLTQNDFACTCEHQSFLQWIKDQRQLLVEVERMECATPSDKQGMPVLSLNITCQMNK

B1: recombinant human NAMPT/PBEF (nicotinamide phosphoribosyl-transferase / pre-B cell colony-enhancing factor) (natural protein, UniProt P43490 1-491, looked up)
chain: MNPAAEAEFNILLATDSYKVTHYKQYPPNTSKVYSYFECREKKTENSKLRKVKYEETVFYGLQYILNKYLKGKVVTKEKIQEAKDVYKEHFQDDVFNEKGWNYILEKYDGHLPIEIKAVPEGFVIPRGNVLFTVENTDPECYWLTNWIETILVQSWYPITVATNSREQKKILAKYLLETSGNLDGLEYKLHDFGYRGVSSQETAGIGASAHLVNFKGTDTVAGLALIKKYYGTKDPVPGYSVPAAEHSTITAWGKDHEKDAFEHIVTQFSSVPVSVVSDSYDIYNACEKIWGEDLRHLIVSRSTQAPLIIRPDSGNPLDTVLKVLEILGKKFPVTENSKGYKLLPPYLRVIQGDGVDINTLQEIVEGMKQKMWSIENIAFGSGGGLLQKLTRDLLNCSFKCSYVVTNGLGINVFKDPVADPNKRSKKGRLSLHRTPAGNFVTLEEGKGDLEEYGQDLLHTVFKNGKVTKSYSFDEIRKNAQLNIELEAAHH
notes: nicotinamide phosphoribosyl-transferase (NAMPT/PBEF/visfatin), human, bioactive non-denatured recombinant protein; also called rPBEF; visfatin; source: bought: MBL International
With B1, the binding result is listed as “binds”.
